The supplement of paper PMC9942255
Several values for one entry are separate records, joined by “and”; a condition that tells them apart may be missing. Identical values can stand only once.

System: Bacillus subtilis DB104 (SP-AmyQ fusion secretion)
Experiment: AmyQ secretion efficiency, weighted average sort bin (1 = best secretion, 10 = worst) (bin number (weighted average, 1-10)); higher = lower secretion efficiency
How it was run: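 Secretion score gives the read-frequency-weighted average bin number, normalised to beads per bin, with low-abundance sequences left out. A B. subtilis DB104 library expressing mature AmyQ fused to designed signal peptides, integrated at amyE, was encapsulated with fluorescein-starch at about 0.3 cells per ~65 nL alginate bead. Beads were grown about 13 h at room temperature, stained with nile red, and the occupied ones were sorted by large-particle flow cytometry into 10 equally populated bins by green/red fluorescence ratio before the amplicons from each bin were Illumina-sequenced.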

Row | Sequence | AmyQ secretion efficiency
1 | MKSKWMSGLLLVAVGFSFTQVMAHAGET | 7.06
2 | MKSKWMSGLLLVAVGFSFTQVMDHAGET | 6.14
3 | MKSKWMSGLLLVAVGFSFTQVMEHAGET | 7.11
4 | MKSKWMSGLLLVAVGFSFTQVMFHAGET | 6.46
5 | MKSKWMSGLLLVAVGFSFTQVMGGFFAVHAGET | 7.03
6 | MKSKWMSGLLLVAVGFSFTQVMGHAGET | 5.88
7 | MKSKWMSGLLLVAVGFSFTQVMHHAGET | 6.66
8 | MKSKWMSGLLLVAVGFSFTQVMLHAGET | 6.15
9 | MKSKWMSGLLLVAVGFSFTQVMNHAGET | 5.68
10 | MKSKWMSGLLLVAVGFSFTQVMSHAGET | 6.67
11 | MKSKWMSGLLLVAVGFSFTQVMTHAGET | 7.1
12 | MKSKWMSGLLLVAVGFSFTQVMTSFFTPASPVHAGET | 6.76
13 | MKSKWMSGLLLVAVGFSFTQVMVHADEE | 6.6
14 | MKSKWMSGLLLVAVGFSFTQVMVHAGDE | 5.94
15 | MKSKWMSGLLLVAVGFSFTQVMVHAGET | 6.97 and 4.43 and 7.09
16 | MKSKWMSGLLLVAVGFSFTQVMVHAGRR | 7.76
17 | MKSKWMSGLLLVAVGFSFTQVMVHAGTT | 5.78
18 | MKSKWMSGLLLVAVGFSFTQVMVHARRR | 7.53
19 | MKSKWMSGLLLVAVGFSFTQVMVHCGET | 4.81
20 | MKSKWMSGLLLVAVGFSFTQVMVHEGET | 5.54
21 | MKSKWMSGLLLVAVGFSFTQVMVHGGET | 7.46
22 | MKSKWMSGLLLVAVGFSFTQVMVHHGET | 6.33

Row | Sequence | AmyQ secretion efficiency
23 | MKSKWMSGLLLVAVGFSFTQVMVHIGET | 5.32
24 | MKSKWMSGLLLVAVGFSFTQVMVHLGET | 7.17
25 | MKSKWMSGLLLVAVGFSFTQVMVHNGET | 8.98
26 | MKSKWMSGLLLVAVGFSFTQVMVHPGET | 7.16
27 | MKSKWMSGLLLVAVGFSFTQVMVHQGET | 6.96
28 | MKSKWMSGLLLVAVGFSFTQVMVHSGET | 6.94
29 | MKSKWMSGLLLVAVGFSFTQVMVHWGET | 5.88
30 | MKSKWMSGLLLVAVGFSFTQVMWHAGET | 7.01
31 | MKSKWMSGLLLVAVGFSFTQVMYHAGET | 7.02
32 | MKSKWMSGLLLVAVGFSFTSVMVHAGET | 7.31
33 | MKSKWMSGLLLVAVGTQVMVHAGET | 5.76
34 | MKSKWMSRKLLVAVGFSFTQVMVHAGET | 6.44
35 | MKSKWMSRKRRVAVGFSFTQVMVHAGET | 6.31
36 | MKSKWQRKRRSGLLLVAVGFSFTQVMVHAGET | 6.49
37 | MKSLPYTIALLFCGLIIVSMAAKGDED | 8.1
38 | MKSLPYTIALLFCGLIIVSMAAKGHED | 7.33
39 | MKSLPYTIALLFCGLIIVSMAAKGHKK | 6.13
40 | MKSLPYTIALLFCGLIIVSMAAKGHST [wt_52] | 6.6
41 | MKSLPYTIALLFCGLIIVSMAAKGKKR | 7.49
42 | MKSRTIWTIILGALCIAVAYTLTKSQAGASSS | 8.18
43 | MKSRTIWTIILGALLVCCIAVAYTLTKSQAGASSS | 5.1 and 5.65
44 | MKSRTIWTIILGALLVCCKKKKRTLTKSQAGASSS | 6.52

Row | Sequence | AmyQ secretion efficiency
45 | MKSRTIWTIILGALLVCSAASSCIAVAYTLTKSQAGASSS | 6.64
46 | MKSSSSALLLLLFAFEPSASGKKL | 7.85
47 | MKTKTFLFIFSAILTLSIFAPNETFAQTA | 2.73
48 | MKTKTGFIFSAILTLSIFAPNETFAQTA | 1.63
49 | MKTKTLFIFSAILTFAPNETFAQTA | 2.34
50 | MKTKTLFIFSAILTLSIEDEDEETFAQTA | 5.99
51 | MKTKTLFIFSAILTLSIFAPNEAFAQTA | 1.47
52 | MKTKTLFIFSAILTLSIFAPNECFAQTA | 2.92
53 | MKTKTLFIFSAILTLSIFAPNEGFAQTA | 3.32
54 | MKTKTLFIFSAILTLSIFAPNEMFAQTA | 1.9
55 | MKTKTLFIFSAILTLSIFAPNESFAQTA | 2.17
56 | MKTKTLFIFSAILTLSIFAPNETFAQEE | 1.78
57 | MKTKTLFIFSAILTLSIFAPNETFAQRR | 1.31
58 | MKTKTLFIFSAILTLSIFAPNETFAQTK | 1.96
59 | MKTKTLFIFSAILTLSIFAPNETFARRR | 2.28
60 | MKTKTLFIFSAILTLSIFAPNEVFAQTA | 1.58
61 | MKTKTLFIFSAILTLSIFAPNTTFAQTA | 2
62 | MKTKTLFIFSAILTLSIFASTITLSAFAPNETFAQTA | 3.01
63 | MKTKTLFIFSAILTLSIQAPNETFAQTA | 2.35
64 | MKTKTLFIFSAILTLSIRKPNRTFAQTA | 6.8
65 | MKTKTLKRFSAILTLSIFAPNETFAQTA | 3.24
66 | MKTLRNMLSTLCVLMILSGVIFFGLKIDAKDI | 6.22

Row | Sequence | AmyQ secretion efficiency
67 | MKTLRSRCYKGILSGVIFFGLKIDAKDI | 6.82
68 | MKTLRTKCRKKILSGVIFFGLKIDAKDI | 6.97
69 | MKTLRTLCVLMILSGVIFFGLKCDAKDI | 4.31
70 | MKTLRTLCVLMILSGVIFFGLKDIDAKDI | 6.44
71 | MKTLRTLCVLMILSGVIFFGLKIDADDD | 6.82
72 | MKTLRTLCVLMILSGVIFFGLKIDCKDI | 5.37
73 | MKTLRTLCVLMILSGVIFFGLKIDRKDI | 5.46
74 | MKTLRTLCVLMILSGVIFFGLKIDVKDI | 6.52
75 | MKTLRTLCVLMILSGVIFFGLKLDAKDI | 7.62
76 | MKTLRTLCVLMILSGVIFFGLKYDAKDI | 5.31
77 | MKTPKGMLLSTAAGLLLSLTATSVSAHYV | 5.33
78 | MKVCQKSIKRFLVSLIIGTFVISVPFMANAQSD | 1.93
79 | MKVCQKSIRFLVSLIIGTFVISVPFMANAQSD | 1.22
80 | MKVCQKSIVRFKRRKRRGTFVISVPFMANAQSD | 7.96
81 | MKVCQKSIVRFLVFLIIFLFVIGTSVPFMANAQSD | 2.68
82 | MKVCQKSIVRFLVSLIIGTFVIRKKFMANAQSD | 6.59
83 | MKVCQKSIVRFLVSLIIGTFVISVPFMANAEED | 3.09
84 | MKVCQKSIVRFLVSLIIGTFVISVPFMANAQDD | 2.65
85 | MKVCQKSIVRFLVSLIIGTFVISVPFMANAQSE | 1.52
86 | MKVCQKSIVRFLVSLIIGTFVISVPFMANAQSK | 2.23
87 | MKVCQKSIVRFLVSLIIGTFVISVPFMANARKR | 3.31
88 | MKVCQKSIVRFLVSLIIGTFVISVPFMANFQSD | 5.64

Row | Sequence | AmyQ secretion efficiency
89 | MKVCQKSIVRFLVSLIIGTFVITSVPFMANAQSD | 3
90 | MKVCQKSIVRFRKRRIIGTFVISVPFMANAQSD | 7.62
91 | MKVCQKSIVRSGVSLIIGTFVISVPFMANAQSD | 2.46
92 | MKVCQKSIVRSQRSLIIGTFVISVPFMANAQSD | 5.65
93 | MKVCQKSIVRSTTRQRIGTFVISVPFMANAQSD | 7.4
94 | MKVCQKSIVRTNFLVSLIIGTFVISVPFMANAQSD | 2.34
95 | MKVKKSALLLLLFAFEPSASGKKL | 7.2
96 | MKVKRKRLLLLLFAFEPSASGKKL | 7.56
97 | MKVKRRKRKLLLFAFEPSASGKKL | 6.97
98 | MKVLLSALLLLFEPSASGKKL | 7.48
99 | MKVLLSALLLLLFAEASGKKL | 6.56
100 | MKVLLSALLLLLFAEDEEEEASGKKL | 5.86
101 | MKVLLSALLLLLFAEEDSASGKKL | 6.1
102 | MKVLLSALLLLLFAFAASASGKKL | 6.06
103 | MKVLLSALLLLLFAFEPSASAKKL | 1.92
104 | MKVLLSALLLLLFAFEPSASCKKL | 4.65
105 | MKVLLSALLLLLFAFEPSASDKKL | 6.18
106 | MKVLLSALLLLLFAFEPSASEKKL | 5.89
107 | MKVLLSALLLLLFAFEPSASGAKR | 4.45
108 | MKVLLSALLLLLFAFEPSASGAPR | 3.63
109 | MKVLLSALLLLLFAFEPSASGASL | 2.94
110 | MKVLLSALLLLLFAFEPSASKKKL | 6.2

Row | Sequence | AmyQ secretion efficiency
111 | MKVLLSALLLLLFAFEPSASMKKL | 6.8
112 | MKVLLSALLLLLFAFEPSASPKKL | 2.66
113 | MKVLLSALLLLLFAFEPSASTKKL | 5.63
114 | MKVLLSALLLLLFAFEPSASVKKL | 6.34
115 | MKVLLSALLLLLFAFEPSASWKKL | 5.1
116 | MKVLLSALLLLLFAFEPSCSGKKL | 5.53
117 | MKVLLSALLLLLFAFEPSDSGKKL | 6.13
118 | MKVLLSALLLLLFAFEPSESGKKL | 6.5
119 | MKVLLSALLLLLFAFEPSFASGKKL | 5.58
120 | MKVLLSALLLLLFAFEPSFSGKKL | 8.07
121 | MKVLLSALLLLLFAFEPSGSGKKL | 5.88
122 | MKVLLSALLLLLFAFEPSHSGKKL | 6.88
123 | MKVLLSALLLLLFAFEPSISGKKL | 7.18
124 | MKVLLSALLLLLFAFEPSKSGKKL | 6.03
125 | MKVLLSALLLLLFAFEPSLSGKKL | 6.45
126 | MKVLLSALLLLLFAFEPSNSGKKL | 6.02
127 | MKVLLSALLLLLFAFEPSPSGKKL | 6.9
128 | MKVLLSALLLLLFAFEPSRSGKKL | 6.31
129 | MKVLLSALLLLLFAFEPSSSGKKL | 6.37
130 | MKVLLSALLLLLFAFEPSTVVTAATAVASGKKL | 2.96
131 | MKVLLSALLLLLFAFEPSVSGKKL | 6.17
